Measured values reported in paper PMC11063902.
pKd: −log10 of the molar value. Like-named read-outs stand apart in the source and are kept apart here. Blank lines part the entries; values can stand above or below the substance they belong to.

How the values were obtained:
[1] = molecular target: eIF4A•eIF4G_(711-1104)-Fl (UniProt Q04637); assay: fluorescence polarisation; as a3 with 200 nM eIF3 added (subsaturating, ~50% of eIF4G-Fl bound); 20 nM eIF4G-Fl, 3 uM eIF4A, 40S subunit titrated; 0.5 mM ATP/MgCl2
[2] = molecular target: eIF4A•eIF4G_(682-1104)-Fl (UniProt Q04637); assay: as above
[3] = molecular target: eIF4A•eIF4G_(711-1104)-Fl (UniProt Q04637); assay: fluorescence polarisation; 20 nM eIF4G-Fl with 3 uM eIF4A, 40S subunit titrated; Binding Buffer (20 mM Tris acetate pH 7.5, 70 mM KCl, 2 mM free Mg2+, 0.1 mM spermidine, 1 mM DTT, 10% glycerol, 0.1 mg/ml BSA) with 0.5 mM ATP/MgCl2; 10 min ice, 5 min 30 °C, 10 min room temperature
[4] = molecular target: eIF4A•eIF4G_(682-1104)-Fl (UniProt Q04637); assay: as above
[5] = molecular target: eIF4G_(721-1104)-Fl (S1041C) (human) (UniProt Q04637); assay: fluorescence polarisation; eIF4G_(721-1104)-Fl (fluorescein at S1041C) titrated with eIF3 or eIF3-PR∗; carried out as described previously (ref. 7)
[6] = molecular target: eIF4G_(721-1104)-Fl (S1041C) (human) (UniProt Q04637); assay: as above; remark: listed apart in the source
eIF4G682-1104 (human) = assay: fluorescence anisotropy; conditions: uncapped; 20 mM Tris acetate pH 7.5, 70 mM KCl, 2 mM free Mg2+ (Mg acetate), 0.1 mM spermidine, 1 mM DTT, 10% glycerol, 0.1 mg/ml BSA; 20 nM RNA; 30 °C for 5 min
eIF4G721-1104 (human) = assay: fluorescence anisotropy; conditions: text gives 4.60 ± 0.47 uM; uncapped; 20 mM Tris acetate pH 7.5, 70 mM KCl, 2 mM free Mg2+ (Mg acetate), 0.1 mM spermidine, 1 mM DTT, 10% glycerol, 0.1 mg/ml …; 20 nM RNA; 30 °C for 5 min

- KD with 200 nM eIF3 [1]: 248 nM
- KD with 200 nM eIF3 [2]: 76 nM
- pKd [3]: 6.25
- pKd [4]: 6.89
Substance: 40S ribosomal subunit (complex)

- pKd [5]: 6.91
- pKd [6]: 7.09
Substance: eIF3 (intact multi-subunit complex) (from UniProt O15371 1-548; Q99613 1-913; O75822 1-258)

Substance: CAA-42-FL (42-mer RNA-Fl)
- pKd (eIF4G682-1104 (human)): 6.33
- pKd (eIF4G721-1104 (human)): 5.34

Substance: eIF3-PR∗ (eIF3 cleaved by HIV-1 PR and purified by size exclusion chromatography) (from UniProt O15371 1-114; Q99613 1-913) (complex)
- pKd [5]: 7.12
- pKd [6]: 6.90
